± gives the uncertainty stated by the source.
B1: Protein S100-G, residues 1 to 79; numbered along this chain, P02633 (parent)
chain: MSAKKSPEELKGIFEKYAAKEGDPNQLSKEELKLLLQTEFPSLLKGPSTLDELFEELDKNGDGEVSFEEFQVLVKKISQ

Variants of: B1
Assay: abundance fitness (aPCA) (normalised: wild type 0, dead -1); higher = more abundant; growth selection in yeast, the domain comes from the species named
Settings: Bos taurus

Variant	abundance fitness
N25E	-0.012 ± 0.092
N25F	0.027 ± 0.085
N25G	-0.021 ± 0.076
N25H	0.02 ± 0.086
N25I	0.024 ± 0.086
N25K	-0.059 ± 0.086
N25L	0.081 ± 0.065
N25M	-0.083 ± 0.081
N25P	-0.077 ± 0.08
N25Q	-0.079 ± 0.09
N25R	-0.069 ± 0.069
N25S	-0.027 ± 0.07
N25T	-0.006 ± 0.076
N25V	-0.066 ± 0.07
N25W	-0.303 ± 0.098
N25Y	-0.067 ± 0.093
Q26A	-0.062 ± 0.07
Q26C	-0.082 ± 0.089
Q26D	-0.155 ± 0.092
Q26E	0.012 ± 0.09
Q26F	-0.043 ± 0.088
Q26G	-0.031 ± 0.07
Q26H	-0.075 ± 0.089
Q26I	0.003 ± 0.087

Variant	abundance fitness
Q26K	-0.05 ± 0.079
Q26L	0.006 ± 0.064
Q26M	0.002 ± 0.083
Q26N	-0.048 ± 0.083
Q26P	-0.523 ± 0.078
Q26R	0.054 ± 0.068
Q26S	0.042 ± 0.064
Q26V	-0.081 ± 0.071
Q26W	0.037 ± 0.089
Q26Y	0.021 ± 0.082
L27A	-0.137 ± 0.077
L27C	0.006 ± 0.091
L27D	-0.855 ± 0.1
L27E	-1.04 ± 0.094
L27F	-0.48 ± 0.093
L27G	-0.786 ± 0.076
L27H	-0.751 ± 0.092
L27I	0.105 ± 0.1
L27K	-0.844 ± 0.088
L27M	-0.054 ± 0.085
L27N	-0.681 ± 0.099
L27P	-0.846 ± 0.082
L27Q	-0.839 ± 0.08
L27R	-0.673 ± 0.066

Variant	abundance fitness
L27S	-0.611 ± 0.068
L27T	-0.335 ± 0.078
L27V	-0.02 ± 0.073
L27W	-0.936 ± 0.088
L27Y	-0.764 ± 0.092
S28A	0 ± 0.071
S28C	-0.07 ± 0.088
S28D	0.037 ± 0.093
S28E	-0.05 ± 0.1
S28F	-0.425 ± 0.089
S28H	-0.041 ± 0.081
S28I	-0.282 ± 0.089
S28K	-0.048 ± 0.091
S28L	-0.208 ± 0.068
S28M	-0.218 ± 0.088
S28N	-0.049 ± 0.084
S28P	-0.033 ± 0.078
S28Q	-0.008 ± 0.085
S28R	-0.065 ± 0.066
S28T	-0.083 ± 0.072
S28V	-0.156 ± 0.073
S28W	-0.465 ± 0.091
S28Y	-0.277 ± 0.089
K29A	0.025 ± 0.071

Variant	abundance fitness
K29C	0.002 ± 0.086
K29D	-0.007 ± 0.096
K29E	-0.14 ± 0.083
K29F	0.017 ± 0.087
K29G	-0.078 ± 0.073
K29H	0.06 ± 0.086
K29I	0.056 ± 0.091
K29L	-0.008 ± 0.064
K29M	-0.057 ± 0.077
K29N	0.07 ± 0.091
K29Q	-0.099 ± 0.085
K29R	0.027 ± 0.065
K29S	-0.006 ± 0.068
K29T	0.007 ± 0.079
K29V	0.038 ± 0.07
K29Y	0.12 ± 0.086
E30A	-0.016 ± 0.074
E30C	-0.018 ± 0.086
E30D	0.073 ± 0.084
E30F	-0.006 ± 0.077
E30G	-0.057 ± 0.082
E30H	-0.026 ± 0.077
E30I	-0.032 ± 0.085
E30K	-0.023 ± 0.084

Variant	abundance fitness
E30L	-0.053 ± 0.062
E30M	0.022 ± 0.08
E30N	0.061 ± 0.085
E30P	0.026 ± 0.074
E30Q	0.04 ± 0.078
E30R	0.03 ± 0.066
E30S	0.048 ± 0.062
E30T	-0.001 ± 0.068
E30V	0.071 ± 0.07
E30W	-0.074 ± 0.086
E30Y	-0.042 ± 0.083
E31A	-0.108 ± 0.09
E31C	-0.153 ± 0.097
E31D	0.054 ± 0.11
E31F	-0.123 ± 0.091
E31G	0.015 ± 0.084
E31H	-0.016 ± 0.086
E31I	0.032 ± 0.089
E31K	-0.006 ± 0.1
E31L	-0.045 ± 0.074
E31M	-0.007 ± 0.1
E31N	0.023 ± 0.092
E31P	-0.022 ± 0.095
E31R	-0.064 ± 0.078

Variant	abundance fitness
E31S	0.002 ± 0.074
E31T	-0.175 ± 0.086
E31V	-0.033 ± 0.079
E31W	-0.171 ± 0.11
E31Y	-0.07 ± 0.091
L32A	0.027 ± 0.073
L32C	-0.097 ± 0.087
L32D	-3.08 ± 0.22
L32E	-1.72 ± 0.11
L32F	-0.048 ± 0.083
L32H	-0.951 ± 0.096
L32I	0.067 ± 0.093
L32K	-1.03 ± 0.098
L32N	-0.673 ± 0.093
L32P	-2.71 ± 0.14
L32Q	-0.616 ± 0.083
L32R	-0.874 ± 0.067
L32S	-0.138 ± 0.064
L32T	-0.054 ± 0.075
L32V	-0.067 ± 0.067
L32W	-0.209 ± 0.081
L32Y	-0.205 ± 0.087
K33A	0.043 ± 0.076
K33C	-0.072 ± 0.084

Variant	abundance fitness
K33E	-0.032 ± 0.093
K33F	-0.022 ± 0.091
K33G	0.033 ± 0.08
K33H	-0.041 ± 0.088
K33I	-0.051 ± 0.086
K33N	-0.016 ± 0.085
K33R	-0.005 ± 0.07
K33T	0.059 ± 0.074
K33V	-0.016 ± 0.072
K33W	-0.479 ± 0.083
K33Y	-0.121 ± 0.085
L34A	0.066 ± 0.075
L34C	-0.045 ± 0.08
L34D	0.113 ± 0.093
L34E	0.054 ± 0.097
L34F	-0.036 ± 0.075
L34G	0.035 ± 0.08
L34H	0.05 ± 0.078
L34I	0.018 ± 0.09
L34K	0.027 ± 0.085
L34N	0.041 ± 0.085
L34R	0.05 ± 0.07
L34S	-0.04 ± 0.064
L34T	0.023 ± 0.074

Variant	abundance fitness
L34V	-0.031 ± 0.072
L34Y	-0.015 ± 0.079
L35A	0.02 ± 0.08
L35C	-0.064 ± 0.08
L35D	-1.44 ± 0.11
L35E	-1.11 ± 0.11
L35F	-0.164 ± 0.069
L35G	-0.51 ± 0.085
L35H	-0.724 ± 0.074
L35I	0.016 ± 0.075
L35K	-0.829 ± 0.092
L35M	0.031 ± 0.076
L35N	-1.04 ± 0.081
L35P	-2.06 ± 0.096
L35Q	-0.684 ± 0.091
L35S	-0.206 ± 0.06
L35T	-0.174 ± 0.066
L35W	-0.313 ± 0.084
L36A	-0.1 ± 0.07
L36C	-0.099 ± 0.093
L36D	-2.17 ± 0.14
L36E	-1.37 ± 0.11
L36F	-0.008 ± 0.074
L36G	-0.589 ± 0.085

Variant	abundance fitness
L36H	-1.08 ± 0.083
L36I	-0.013 ± 0.076
L36K	-1.98 ± 0.11
L36Q	-0.789 ± 0.09
L36R	-1.92 ± 0.092
L36S	-0.499 ± 0.063
L36T	-0.203 ± 0.065
L36V	-0.01 ± 0.067
L36W	-0.076 ± 0.087
L36Y	-0.209 ± 0.075
Q37A	-0.058 ± 0.074
Q37C	-0.076 ± 0.083
Q37D	0.054 ± 0.088
Q37E	0.019 ± 0.092
Q37F	-0.016 ± 0.074
Q37G	0.004 ± 0.08
Q37H	-0.047 ± 0.078
Q37I	-0.104 ± 0.072
Q37K	-0.008 ± 0.08
Q37L	-0.08 ± 0.06
Q37M	-0.104 ± 0.078
Q37P	-0.185 ± 0.072
Q37R	0.005 ± 0.067
Q37S	-0.142 ± 0.063

Variant	abundance fitness
Q37T	0.021 ± 0.067
Q37V	-0.001 ± 0.072
Q37W	-0.082 ± 0.085
Q37Y	-0.118 ± 0.075
T38A	0.027 ± 0.078
T38C	-0.034 ± 0.095
T38D	0.096 ± 0.098
T38F	-0.002 ± 0.08
T38G	-0.1 ± 0.084
T38H	-0.045 ± 0.091
T38I	-0.004 ± 0.081
T38L	-0.073 ± 0.061
T38M	-0.045 ± 0.075
T38N	-0.056 ± 0.085
T38P	-0.642 ± 0.077
T38Q	0.008 ± 0.082
T38R	-0.082 ± 0.071
T38V	0.014 ± 0.075
T38W	-0.194 ± 0.089
T38Y	-0.074 ± 0.084
E39A	-0.515 ± 0.07
E39C	-0.295 ± 0.093
E39D	-0.16 ± 0.082
E39F	-0.345 ± 0.08

Variant	abundance fitness
E39G	-0.809 ± 0.083
E39H	-0.059 ± 0.074
E39I	-0.24 ± 0.078
E39K	-0.33 ± 0.091
E39L	-0.207 ± 0.065
E39M	-0.177 ± 0.087
E39N	-0.138 ± 0.077
E39P	-1.63 ± 0.097
E39Q	-0.21 ± 0.089
E39R	-0.449 ± 0.076
E39S	-0.308 ± 0.065
E39T	-0.218 ± 0.069
E39V	-0.304 ± 0.068
E39W	-0.349 ± 0.1
E39Y	-0.197 ± 0.075
F40A	-0.189 ± 0.079
F40C	-0.059 ± 0.082
F40D	-0.099 ± 0.091
F40E	-0.158 ± 0.094
F40G	-0.155 ± 0.085
F40I	0.019 ± 0.076
F40K	-0.218 ± 0.084
F40L	-0.037 ± 0.062
F40M	0.047 ± 0.081

Variant	abundance fitness
F40N	-0.084 ± 0.077
F40P	-0.889 ± 0.079
F40Q	-0.178 ± 0.081
F40S	-0.16 ± 0.064
F40T	-0.106 ± 0.072
F40V	-0.065 ± 0.072
F40W	0.008 ± 0.095
F40Y	-0.011 ± 0.074
P41A	0.079 ± 0.074
P41C	-0.159 ± 0.094
P41D	-0.021 ± 0.092
P41E	-0.191 ± 0.091
P41F	-0.019 ± 0.098
P41G	0.002 ± 0.072
P41H	0.066 ± 0.088
P41K	0.017 ± 0.087
P41L	-0.072 ± 0.065
P41M	-0.091 ± 0.085
P41N	-0.06 ± 0.081
P41Q	0.025 ± 0.086
P41R	-0.059 ± 0.066
P41S	0.055 ± 0.068
P41T	0.001 ± 0.073
P41V	-0.129 ± 0.069

Variant	abundance fitness
P41W	-0.115 ± 0.085
P41Y	-0.037 ± 0.09
S42A	-0.011 ± 0.072
S42C	-0.074 ± 0.086
S42D	-0.046 ± 0.086
S42E	0.116 ± 0.089
S42F	-0.049 ± 0.081
S42G	-0.023 ± 0.075
S42H	-0.087 ± 0.085
S42I	-0.035 ± 0.083
S42K	0.061 ± 0.081
S42M	-0.07 ± 0.081
S42N	-0.009 ± 0.083
S42P	0.008 ± 0.075
S42R	-0.056 ± 0.069
S42T	0.084 ± 0.073
S42V	-0.058 ± 0.071
S42W	-0.098 ± 0.085
S42Y	-0.047 ± 0.08
L43A	0.013 ± 0.068
L43C	-0.018 ± 0.092
L43D	-0.119 ± 0.09
L43E	0.105 ± 0.09
L43F	-0.02 ± 0.081

Variant	abundance fitness
L43H	-0.034 ± 0.081
L43I	-0.012 ± 0.085
L43K	-0.001 ± 0.078
L43M	0.011 ± 0.079
L43N	-0.094 ± 0.082
L43P	-0.032 ± 0.073
L43Q	0.028 ± 0.078
L43R	-0.077 ± 0.066
L43S	0.023 ± 0.064
L43T	-0.07 ± 0.069
L43V	0.057 ± 0.068
L43W	-0.035 ± 0.078
L43Y	0.015 ± 0.078
L44A	0.071 ± 0.071
L44C	0.002 ± 0.081
L44D	0.033 ± 0.091
L44E	0.058 ± 0.1
L44F	-0.006 ± 0.07
L44G	-0.047 ± 0.076
L44H	-0.035 ± 0.078
L44I	0.033 ± 0.082
L44M	-0.059 ± 0.081
